{
  "source": "patent US11771766B2",
  "about": "“Drug delivery system containing phospholipid and cholesterol” (Taiwan Liposome Co., Ltd, priority 2009, dated 2023)",
  "key": {"[1]": {"assay": "Pharmacokinetic properties of vitreous Avastin after intravitreal injection (Example 6)", "assay_type": "in vivo, Rabbits", "procedure": "Rabbits were injected intravitreally with either Avastin alone (control rabbits) or Avastin mixed with a delivery vehicle containing DOPC/Cholesterol/DOPG at a ratio 67.5/25/7.5 (test rabbits). Vitreous Avastin concentrations of the control rabbits were examined by ELISA at days 7, 21, and 28 post injection and those of the test rabbits were examined at days 7, 21, 28, 35, 41, and 49 post injection.\nIn a similar study, the vitreous Avastin concentrations were monitored 7, 28, 49, 70, 91 and 112 days post intravitreal injection."}, "[2]": {"assay": "Gel filtration (Sepharose 4B) of drug/delivery vehicle mixtures: percentage of non-associated drug", "assay_type": "physicochemical", "settings": "mixed with DOPC/DOPG/cholesterol vehicle (weight ratio 8.8/1/1.6), 50 mM phosphate buffer pH 6.2", "procedure": "DOPC, DOPG, and cholesterol at a weight ratio of 8.8/1/1.6 were dissolved in chloroform, which was then evaporated under vacuum using a rotary evaporator. The dried mixture of the phospholipids and cholesterol thus produced was suspended in deionized water to form an aqueous suspension. The suspension is then homogenized via sonication using a cup horn sonicator (Misonix Sonicator 3000), sterilized by filtration, filled aseptically in a vial, and lyophilized to form a phospholipid-cholesterol-containing delivery vehicle. The phospholipid concentration in the vehicle was determined by a conventional phosphorus assay to ensure that the vehicle contained an appropriate total amount of the phospholipids.\nThe mixtures thus formed were diluted 18-100-fold in the same phosphate buffer and an aliquot of each mixture ([…]) was subjected to gel-filtration to determine the percentage of the therapeutic agent that was in non-associated form. Briefly, an aliquot of a mixture was loaded onto a Sepharose 4B column (diameter: 1.8 mm; length: 315 mm). The components in the mixture were then eluted by 50 mM phosphate buffer (pH 6.2). Fractions containing the therapeutic agent in different form, i.e., non-associated form or associated with the phospholipids, were collected, their absorbance being measured at 215 nm and 254 nm. The amount of the therapeutic agent in each fraction was determined based on the values of OD215 and OD254."}, "[3]": {"assay": "Vitreous Avastin concentration after intravitreal injection, by ELISA (Examples 2-5)", "assay_type": "in vivo, New Zealand White rabbits", "settings": "Avastin dose 1.25 mg per eye", "procedure": "The effect of the delivery vehicles mentioned above in prolonging the lifetime of Avastin in eyes was examined following the method described in Bakri et al., Ophthalmology, 2007, 114:5, 855-859. Briefly, New Zealand White rabbits were sedated by intramuscular injection of a mixture containing Zoletil (15 mg/ml) and Rompun (7 mg/ml). Both eyes of each rabbit were injected intravitreally with 50 μl of Avastin (25 mg/ml) or one of the aqueous suspensions mentioned above (at an Avastin dose of 1.25 mg per eye) using a 30-gauge needle. Rabbits were sacrificed at 7 days or 21 days after injection and their eyes were promptly enucleated. The vitreous humor was isolated from each eye together with retina and Avastin concentration was determined by ELISA as follows.\nA F96 MaxiSorp™ NUNC-IMMUNO plate was coated with VEGF (10 μg/ml in PBS, pH 7.4; 100 μl/well) at 4° C. overnight. The VEGF-coated plate was washed with PBS and then blocked with a blocking buffer (5% skim milk in PBS) at room temperature for 1 hour. […] The absorbance at 450 nm (OD450) of each well was determined by an ELISA reader. Various pre-determined Avastin concentrations (3.125-25 ng/ml) were used to establish a standard Avastin concentration/OD450 curve. The Avastin concentration in each sample was determined based on its OD450 value in view of the standard curve. […]"}},
  "data": [
    {"compound": "Avastin: an antibody specific to vascular endothelial growth factor", "values": [
      {"measurement": "vitreous Avastin concentration", "setting": "[1]; 28 days after intravitreal injection", "value": 13, "unit": "µg/mL"},
      {"measurement": "t1/2 (half-life of intravitreal Avastin)", "setting": "[1]; control rabbits, vitreous", "value": 93.6, "unit": "h"},
      {"measurement": "vitreous concentration of Avastin over time (in words, FIG. 1)", "setting": "[1]; days 7 to 49 after intravitreal injection", "value": "decreased much rapidly over time"},
      {"measurement": "AUC(7-∞)", "setting": "[1]; vitreous, from the 7th day to infinity", "value": 3294, "unit": "µg·days/mL"},
      {"measurement": "AUC(7-112)", "setting": "[1]; vitreous, from the 7th day to the 112th day", "value": 3294, "unit": "µg·days/mL"},
      {"measurement": "AUC(112-∞)", "setting": "[1]; vitreous, from the 112th day to infinity", "value": 0, "unit": "µg·days/mL"},
      {"measurement": "Percentage of Non-Associated Drug (% ± S.D.)", "setting": "[2]", "value": "62.1 ± 0.9", "unit": "%"},
      {"measurement": "Avastin Concentration", "setting": "[3]; vitreous humor with retina, seven days after intravitreal injection", "value": "247 ± 27", "unit": "µg/mL"},
      {"measurement": "Avastin Concentration", "setting": "[3]; vitreous, 21 days after intravitreal injection", "value": "37 ± 7", "unit": "µg/mL"}
    ]},
    {"compound": "N[C@@H](Cc1ccc(O)cc1)C(=O)O", "note": "[Tyrosine, tyrosine]", "values": [
      {"measurement": "Percentage of Non-Associated Drug (% ± S.D.)", "setting": "[2]", "value": "80.3 ± 0.1", "unit": "%"}
    ]},
    {"compound": "HFRRHLC [HFRRHLC (SEQ ID NO: 1) peptide]", "values": [
      {"measurement": "Percentage of Non-Associated Drug (% ± S.D.)", "setting": "[2]", "value": "71.9 ± 0.2", "unit": "%"}
    ]},
    {"compound": "C[C@@H]1C[C@H]2[C@@H]3CCC4=CC(=O)C=C[C@]4(C)[C@@]3(F)[C@@H](O)C[C@]2(C)[C@@]1(O)C(=O)COP(=O)(O)O", "note": "[Dexamethasone sodium phosphate, dexamethasone sodium phosphate]", "values": [
      {"measurement": "Percentage of Non-Associated Drug (% ± S.D.)", "setting": "[2]", "value": "68.5 ± 0.5", "unit": "%"}
    ]},
    {"compound": "HWRGWVC [HWRGWVC (SEQ ID NO: 2) peptide]", "values": [
      {"measurement": "Percentage of Non-Associated Drug (% ± S.D.)", "setting": "[2]", "value": "52.4 ± 0.2", "unit": "%"}
    ]},
    {"compound": "N[C@@H](Cc1c[nH]c2ccccc12)C(=O)O", "note": "[Tryptophan, tryptophan]", "values": [
      {"measurement": "Percentage of Non-Associated Drug (% ± S.D.)", "setting": "[2]", "value": "86.1 ± 0.8", "unit": "%"}
    ]},
    {"compound": "bovine serum albumin", "values": [
      {"measurement": "Percentage of Non-Associated Drug (% ± S.D.)", "setting": "[2]", "value": "87.2 ± 0.4", "unit": "%"}
    ]}
  ]
}
